In paper doi:10.1101/677344:

Experiments:
[1] = biological target: AausFP1 (Aequorea cf. australis); assay: crystal structure
[2] = biological target: AausFP2 (Aequorea cf. australis); assay: crystal structure

## AausFP1 (natural protein)
[1]
  stoichiometry N: 2

## AausFP2 (natural protein)
[2]
  stoichiometry N: 2
